Measured values: US6187552A, “Method for identifying inhibitors of JAK2/cytokine receptor binding” (Pharmacia & Upjohn Company, priority 1998, dated 2001)

B1: JAK2: Recombinant JAK2 protein containing the Flag affinity label, expressed in SF9 or HI-5 cells (protein)
chain: MACLTMTEMEGTSTSSIYQNGDISGNANSMKQIDPVLQVYLYHSLGKSEADYLTFPSGEYVAEEICIAASKACGITPVYHNMFALMSETERIWYPPNHVFHIDESTRHNVLYRIRFYFPRWYCSGSNRAYRHGISRGAEAPLLDDFVMSYLFAQWRHDFVHGWIKVPVTHETQEECLGMAVLDMMRIAKENDQTPLAIYNSISYKTFLPKCIRAKIQDYHILTRKRIRYRFRRFIQQFSQCKATARNLKLKYLINLETLQSAFYTEKFEVKEPGSGPSGEEIFATIIITGNGGIQWSRGKHKESETLTEQDLQLYCDFPNIIDVSIKQANQEGSNESRVVTIHKQDGKNLEIELSSLREALSFVSLIDGYYRLTADAHHYLCKEVAPPAVLENIQSNCHGPISMDFAISKLKKAGNQTGLYVLRCSPKDFNKYFLTFAVERENVIEYKHCLITKNENEEYNLSGTKKNFSSLKDLLNCYQMETVRSDNIIFQFTKCCPPKPKDKSNLLVFRTNGVSDVPTSPTLQRPTHMNQMVFHKIRNEDLIFNESLGQGTFTKIFKGVRREVGDYGQLHETEVLLKVLDKAHRNYSESFFEAASMMSKLSHKHLVLNYGVCVCGDENILVQEFVKFGSLDTYLKKNKNCINILWKLEVAKQLAWAMHFLEENTLIHGNVCAKNILLIREEDRKTGNPPFIKLSDPGISITVLPKDILQERIPWVPPECIENPKNLNLATDKWSFGTTLWEICSGGDKPLSALDSQRKLQFYEDRHQLPAPKWAELANLINNCMDYEPDFRPSFRAIIRDLNSLFTPDYELLTENDMLPNMRIGALGFSGAFEDRDPTQFEERHLKFLQQLGKGNFGSVEMCRYDPLQDNTGEVVAVKKLQHSTEEHLRDFEREIEILKSLQHDNIVKYKGVCYSAGRRNLKLIMEYLPYGSLRDYLQKHKERIDHIKLLQYTSQICKGMEYLGTKRYIHRDLATRNILVENENRVKIGDFGLTKVLPQDKEYYKVKEPGESPIFWYAPESLTESKFSVASDVWSFGVVLYELFTYIEKSKSPPAEFMRMIGNDKQGQMIVFHLIELLKNNGRLPRPDGCPDEIYMIMTECWNNNVNQRPSFRDLALRVDQIRDNMAGDYKDDDDKN
modifications: Flag tag
B2: JAK2 from the supernatant: supernatant after 1 hour of ultracentrifugation of JAK2 (protein, UniProt O60674 1-1132, looked up)
Tyrosine-protein kinase JAK2: MGMACLTMTEMEGTSTSSIYQNGDISGNANSMKQIDPVLQVYLYHSLGKSEADYLTFPSGEYVAEEICIAASKACGITPVYHNMFALMSETERIWYPPNHVFHIDESTRHNVLYRIRFYFPRWYCSGSNRAYRHGISRGAEAPLLDDFVMSYLFAQWRHDFVHGWIKVPVTHETQEECLGMAVLDMMRIAKENDQTPLAIYNSISYKTFLPKCIRAKIQDYHILTRKRIRYRFRRFIQQFSQCKATARNLKLKYLINLETLQSAFYTEKFEVKEPGSGPSGEEIFATIIITGNGGIQWSRGKHKESETLTEQDLQLYCDFPNIIDVSIKQANQEGSNESRVVTIHKQDGKNLEIELSSLREALSFVSLIDGYYRLTADAHHYLCKEVAPPAVLENIQSNCHGPISMDFAISKLKKAGNQTGLYVLRCSPKDFNKYFLTFAVERENVIEYKHCLITKNENEEYNLSGTKKNFSSLKDLLNCYQMETVRSDNIIFQFTKCCPPKPKDKSNLLVFRTNGVSDVPTSPTLQRPTHMNQMVFHKIRNEDLIFNESLGQGTFTKIFKGVRREVGDYGQLHETEVLLKVLDKAHRNYSESFFEAASMMSKLSHKHLVLNYGVCVCGDENILVQEFVKFGSLDTYLKKNKNCINILWKLEVAKQLAWAMHFLEENTLIHGNVCAKNILLIREEDRKTGNPPFIKLSDPGISITVLPKDILQERIPWVPPECIENPKNLNLATDKWSFGTTLWEICSGGDKPLSALDSQRKLQFYEDRHQLPAPKWAELANLINNCMDYEPDFRPSFRAIIRDLNSLFTPDYELLTENDMLPNMRIGALGFSGAFEDRDPTQFEERHLKFLQQLGKGNFGSVEMCRYDPLQDNTGEVVAVKKLQHSTEEHLRDFEREIEILKSLQHDNIVKYKGVCYSAGRRNLKLIMEYLPYGSLRDYLQKHKERIDHIKLLQYTSQICKGMEYLGTKRYIHRDLATRNILVENENRVKIGDFGLTKVLPQDKEYYKVKEPGESPIFWYAPESLTESKFSVASDVWSFGVVLYELFTYIEKSKSPPAEFMRMIGNDKQGQMIVFHLIELLKNNGRLPRPDGCPDEIYMIMTECWNNNVNQRPSFRDLALRVDQIRDNMAG

Columns and labels:
human JAK2 = target: T1, human JAK2 (Homo sapiens, UniProt O60674); assay: SPA: binding of 3H-JAK2 to βc peptides on streptavidin-coated beads; conditions: JAK2 from 32.5 nM to 16.25 nM; FIG. 14
T1 construct: NJAK2 = N-terminal 294 residues
Method: Cells were lysed by dounce homogenization (20 strokes) in 1X phosphate buffered saline (PBS), pH 7.5 at 4 C. […] For some experiments, the JAK2 protein (0.15 mg/ml), aliquoted into 7 equivalent tubes, was then subjected to ultracentrifugation in an Airfuge using an A-110 rotor at an average of 164,000×g for a period of 6 hours at ambient temperature. At zero time, and at each subsequent hour thereafter, a tube of JAK2 was removed for analyses (ELISA, SDS polyacrylamide gel electrophoresis, and Western blotting).
Three different labeling reactions were done using ^3 H-N-succinimidyl propionate (^3 H-NSP, Amersham Life Sciences, Arlington Heights, Ill.). One reaction was done using 0.5 mg of purified JAK2 in 0.1 M borate buffer, pH 8.5, with a reaction volume of 150 μl and an incubation time of one hour on ice with dried 1 mCi of ^3 H-NSP (toluene was removed using a stream of nitrogen). […] Another reaction was done using the buffer 0.1 M sodium phosphate, pH 8.0, and a similar volume as before. One milligram of JAK2 in 1.2 ml of phosphate buffer was incubated for three hours on ice. […]
Triplicate reactions were done for each data point. […] The plates were then read on a MicroBeta (Wallac) set to read scintillation due to tritium.
Either ^3 H-JAK2 or ^3 H-NJAK2 was added to the wells and, after incubation, the signals measured. […]

[1] = test system: peptide 4 (βc peptide) bound to SPA beads; assay: SPA competition: unlabeled JAK2 against labeled JAK2/NJAK2 for peptide 4 bound to SPA beads; type: binding, human
[2] = JAK2 remaining soluble after ultracentrifugation (ELISA) / aggregation; type: physicochemical
Method: Recombinant JAK2 protein containing the Flag affinity label ([…]) [SEQ ID NO:20] was expressed in either SF9 or HI-5 cells as described. Cells were lysed by dounce homogenization (20 strokes) in 1X phosphate buffered saline (PBS), pH 7.5 at 4 C. Clarified extract was passed through an anti-Flag immunoaffinity column (Kodak, New Haven, Conn.) and purified recombinant JAK2 was eluted by competition with a solution of Flag peptide at a concentration of 250 ug/ml in 1×PBS. Purity was characterized by a single band on SDS polyacrylamide gels. For some experiments, the JAK2 protein (0.15 mg/ml), aliquoted into 7 equivalent tubes, was then subjected to ultracentrifugation in an Airfuge using an A-110 rotor at an average of 164,000×g for a period of 6 hours at ambient temperature. At zero time, and at each subsequent hour thereafter, a tube of JAK2 was removed for analyses (ELISA, SDS polyacrylamide gel electrophoresis, and Western blotting).
Aliquots of the above supernatants were removed and subjected to an ELISA assay. Each solution was diluted 1:50 with 0.1M sodium carbonate, pH 9.0, and applied in multiple concentrations to a 96 well plate. After an overnight incubation, each well was washed with 0.1% BSA in 1×PBS, pH 7.5 (wash buffer), followed by continued incubation for an additional hour at 4 C. The wells were then incubated with 150 ul of C20 anti-JAK2 antibody (Santa Cruz Biotechnology, Santa Cruz, Calif.) in wash buffer for 1 hour at 4 C., followed by extensive washes with wash buffer. Secondary antibody (150 ul of alkaline phosphatase labeled goat anti-rabbit IgG (Promega, Madison, Wis.) at a dilution of 1:2000) was applied for 1 hour at 4 C., followed by extensive washes with buffer. Finally, wells were incubated with 0.1 M Tris HCl, 5 mM MgCl2, pH 9.5, and then with the same buffer (150 ul) containing 5 mg/ml p-nitrophenylphosphate (pNPP). Color formation was read by a SpectraMax 250 plate reader set at an absorbance of 405 nm. The linear phase of each concentration curve was chosen for each of the time points (0,1,2,3,4,5,and 6 hours of ultracentrifugation) in order to calculate the relative amount of recombinant JAK2 remaining in the supernatant of each fraction.
To see whether more highly aggregated JAK2 could be separated by ultracentifugation from less aggregated or monomeric JAK2, a sample of freshly purified JAK2 at a defined concentration was centrifuged in an airfuge as described in Materials and Methods. Samples were taken at 7 different time points over a 6 hour period to assess the amount of JAK2 which remained in the supernatant phase. After 1 hour at 164,000×g, 40 to 50% of the original JAK2 was detected, a value which remained relatively constant for up to 5 additional hours in this experiment. […] Since the supernatant was removed from below the meniscus by pipetting, a determination of the molecular weight could not be established in this experiment.

Molecule	signal obtained on lowering final JAK2 concentration (human JAK2)	competition of labeled JAK2 binding ([1]; 5-fold excess unlabeled JAK2, peptide 4)	competition of labeled NJAK2 binding ([1]; 10-fold excess unlabeled JAK2, peptide 4)	% JAK2 Remaining ([2]; 0 hours ultracentrifugation) [%]	% JAK2 Remaining ([2]; 1 hour ultracentrifugation, 164,000×g) [%]	% JAK2 Remaining ([2]; 2 hours ultracentrifugation, 164,000×g) [%]	% JAK2 Remaining ([2]; 3 hours ultracentrifugation, 164,000×g) [%]	% JAK2 Remaining ([2]; 4 hours ultracentrifugation, 164,000×g) [%]	% JAK2 Remaining ([2]; 5 hours ultracentrifugation, 164,000×g) [%]	% JAK2 Remaining ([2]; 6 hours ultracentrifugation, 164,000×g) [%]	original JAK2 detected in supernatant ([2]; after 1 hour at 164,000×g, relatively constant up to 5 additional hours) [%]	JAK2 remaining soluble as defined by ELISA ([2]; after ultracentrifugation) [%]	aggregation by size exclusion chromatography ([2]; data not shown)	apparent Kd versus more aggregated JAK2 ([1]; inferred from competition of supernatant, FIG. 18)	competition with labeled JAK2 versus starting material ([1]; supernatant after ultracentrifugation, peptide 4 on beads, FIG. 18)
B1	decreases significantly	competed significantly	reduced almost to background	100	46.0	39.6	32.5	43.7	44.1	41.3	40 to 50	50	exhibited degrees of aggregation		
B2														higher apparent Kd than the more aggregated JAK2	competed less effectively than the starting material
